The values that follow are results of earlier work, collected in paper PMC4321873.

The target of the series is Glu286 (UniProt position 286, FFGHPEVYIIV). The series is described as follows: kinetics.

Consider “Cytochrome c oxidase (aa3-type), subunit I (Rhodobacter sphaeroides)”, for which the pKa result is listed as “∼9.4”.
